± gives the uncertainty stated by the source.
B1: Tumor protein p73, residues 487 to 549; numbered along this chain, O15350 (parent)
chain: YHADPSLVSFLTGLGCPNCIEYFTSQGLQSIYHLQNLTIEDLGALKIPEQYRMTIWRGLQDLK

Variants of: B1
Experiment: abundance fitness (aPCA) (normalised: wild type 0, dead -1); higher = more abundant; growth selection in yeast, the domain comes from the species named
Conditions: Homo sapiens

Row | Variant | abundance fitness
1 | YHADPSLVSFLTGLGCPNCIEYFTSQGLQSIYHLQNLTIEDLGALKSPEQYRMTIWRGLQDLK [I47S] | -0.95 ± 0.083
2 | YHADPSLVSFLTGLGCPNCIEYFTSQGLQSIYHLQNLTIEDLGALKTPEQYRMTIWRGLQDLK [I47T] | -0.431 ± 0.061
3 | YHADPSLVSFLTGLGCPNCIEYFTSQGLQSIYHLQNLTIEDLGALKVPEQYRMTIWRGLQDLK [I47V] | 0.071 ± 0.026
4 | YHADPSLVSFLTGLGCPNCIEYFTSQGLQSIYHLQNLTIEDLGALKWPEQYRMTIWRGLQDLK [I47W] | -0.925 ± 0.053
5 | YHADPSLVSFLTGLGCPNCIEYFTSQGLQSIYHLQNLTIEDLGALKYPEQYRMTIWRGLQDLK [I47Y] | -0.824 ± 0.17
6 | YHADPSLVSFLTGLGCPNCIEYFTSQGLQSIYHLQNLTIEDLGALKIAEQYRMTIWRGLQDLK [P48A] | -0.091 ± 0.043
7 | YHADPSLVSFLTGLGCPNCIEYFTSQGLQSIYHLQNLTIEDLGALKICEQYRMTIWRGLQDLK [P48C] | -0.51 ± 0.071
8 | YHADPSLVSFLTGLGCPNCIEYFTSQGLQSIYHLQNLTIEDLGALKIDEQYRMTIWRGLQDLK [P48D] | -0.054 ± 0.051
9 | YHADPSLVSFLTGLGCPNCIEYFTSQGLQSIYHLQNLTIEDLGALKIEEQYRMTIWRGLQDLK [P48E] | -0.067 ± 0.042
10 | YHADPSLVSFLTGLGCPNCIEYFTSQGLQSIYHLQNLTIEDLGALKIFEQYRMTIWRGLQDLK [P48F] | -1.3 ± 0.37
11 | YHADPSLVSFLTGLGCPNCIEYFTSQGLQSIYHLQNLTIEDLGALKIGEQYRMTIWRGLQDLK [P48G] | -0.173 ± 0.036
12 | YHADPSLVSFLTGLGCPNCIEYFTSQGLQSIYHLQNLTIEDLGALKIHEQYRMTIWRGLQDLK [P48H] | -0.389 ± 0.083
13 | YHADPSLVSFLTGLGCPNCIEYFTSQGLQSIYHLQNLTIEDLGALKIIEQYRMTIWRGLQDLK [P48I] | -0.144 ± 0.18
14 | YHADPSLVSFLTGLGCPNCIEYFTSQGLQSIYHLQNLTIEDLGALKIKEQYRMTIWRGLQDLK [P48K] | -0.212 ± 0.043
15 | YHADPSLVSFLTGLGCPNCIEYFTSQGLQSIYHLQNLTIEDLGALKILEQYRMTIWRGLQDLK [P48L] | -1.1 ± 0.12
16 | YHADPSLVSFLTGLGCPNCIEYFTSQGLQSIYHLQNLTIEDLGALKIMEQYRMTIWRGLQDLK [P48M] | -0.965 ± 0.091
17 | YHADPSLVSFLTGLGCPNCIEYFTSQGLQSIYHLQNLTIEDLGALKINEQYRMTIWRGLQDLK [P48N] | -0.261 ± 0.1
18 | YHADPSLVSFLTGLGCPNCIEYFTSQGLQSIYHLQNLTIEDLGALKIQEQYRMTIWRGLQDLK [P48Q] | -0.208 ± 0.044
19 | YHADPSLVSFLTGLGCPNCIEYFTSQGLQSIYHLQNLTIEDLGALKIREQYRMTIWRGLQDLK [P48R] | -0.42 ± 0.038
20 | YHADPSLVSFLTGLGCPNCIEYFTSQGLQSIYHLQNLTIEDLGALKISEQYRMTIWRGLQDLK [P48S] | -0.149 ± 0.037
21 | YHADPSLVSFLTGLGCPNCIEYFTSQGLQSIYHLQNLTIEDLGALKITEQYRMTIWRGLQDLK [P48T] | -0.247 ± 0.05
22 | YHADPSLVSFLTGLGCPNCIEYFTSQGLQSIYHLQNLTIEDLGALKIVEQYRMTIWRGLQDLK [P48V] | -0.924 ± 0.089

Row | Variant | abundance fitness
23 | YHADPSLVSFLTGLGCPNCIEYFTSQGLQSIYHLQNLTIEDLGALKIWEQYRMTIWRGLQDLK [P48W] | -1.07 ± 0.13
24 | YHADPSLVSFLTGLGCPNCIEYFTSQGLQSIYHLQNLTIEDLGALKIYEQYRMTIWRGLQDLK [P48Y] | -1.13 ± 0.21
25 | YHADPSLVSFLTGLGCPNCIEYFTSQGLQSIYHLQNLTIEDLGALKIPAQYRMTIWRGLQDLK [E49A] | 0.007 ± 0.039
26 | YHADPSLVSFLTGLGCPNCIEYFTSQGLQSIYHLQNLTIEDLGALKIPCQYRMTIWRGLQDLK [E49C] | -0.061 ± 0.052
27 | YHADPSLVSFLTGLGCPNCIEYFTSQGLQSIYHLQNLTIEDLGALKIPDQYRMTIWRGLQDLK [E49D] | 0.105 ± 0.063
28 | YHADPSLVSFLTGLGCPNCIEYFTSQGLQSIYHLQNLTIEDLGALKIPFQYRMTIWRGLQDLK [E49F] | -0.355 ± 0.23
29 | YHADPSLVSFLTGLGCPNCIEYFTSQGLQSIYHLQNLTIEDLGALKIPGQYRMTIWRGLQDLK [E49G] | -0.123 ± 0.034
30 | YHADPSLVSFLTGLGCPNCIEYFTSQGLQSIYHLQNLTIEDLGALKIPHQYRMTIWRGLQDLK [E49H] | -0.047 ± 0.051
31 | YHADPSLVSFLTGLGCPNCIEYFTSQGLQSIYHLQNLTIEDLGALKIPIQYRMTIWRGLQDLK [E49I] | -0.254 ± 0.41
32 | YHADPSLVSFLTGLGCPNCIEYFTSQGLQSIYHLQNLTIEDLGALKIPKQYRMTIWRGLQDLK [E49K] | -0.014 ± 0.05
33 | YHADPSLVSFLTGLGCPNCIEYFTSQGLQSIYHLQNLTIEDLGALKIPLQYRMTIWRGLQDLK [E49L] | -0.042 ± 0.036
34 | YHADPSLVSFLTGLGCPNCIEYFTSQGLQSIYHLQNLTIEDLGALKIPNQYRMTIWRGLQDLK [E49N] | 0.077 ± 0.12
35 | YHADPSLVSFLTGLGCPNCIEYFTSQGLQSIYHLQNLTIEDLGALKIPPQYRMTIWRGLQDLK [E49P] | 0.026 ± 0.066
36 | YHADPSLVSFLTGLGCPNCIEYFTSQGLQSIYHLQNLTIEDLGALKIPQQYRMTIWRGLQDLK [E49Q] | -0.045 ± 0.064
37 | YHADPSLVSFLTGLGCPNCIEYFTSQGLQSIYHLQNLTIEDLGALKIPRQYRMTIWRGLQDLK [E49R] | 0.028 ± 0.039
38 | YHADPSLVSFLTGLGCPNCIEYFTSQGLQSIYHLQNLTIEDLGALKIPSQYRMTIWRGLQDLK [E49S] | -0.056 ± 0.037
39 | YHADPSLVSFLTGLGCPNCIEYFTSQGLQSIYHLQNLTIEDLGALKIPTQYRMTIWRGLQDLK [E49T] | -0.036 ± 0.041
40 | YHADPSLVSFLTGLGCPNCIEYFTSQGLQSIYHLQNLTIEDLGALKIPVQYRMTIWRGLQDLK [E49V] | 0.009 ± 0.033
41 | YHADPSLVSFLTGLGCPNCIEYFTSQGLQSIYHLQNLTIEDLGALKIPYQYRMTIWRGLQDLK [E49Y] | -0.181 ± 0.38
42 | YHADPSLVSFLTGLGCPNCIEYFTSQGLQSIYHLQNLTIEDLGALKIPEAYRMTIWRGLQDLK [Q50A] | 0.08 ± 0.035
43 | YHADPSLVSFLTGLGCPNCIEYFTSQGLQSIYHLQNLTIEDLGALKIPECYRMTIWRGLQDLK [Q50C] | 0.096 ± 0.059

— the Human Domainome abundance scans (Beltran et al. 2025)
